B1: PLK2 (parent)
chain: MELLRTITYQPAASTKMCEQALGK
B2: DLC1 (parent)
chain: KRSWEEHVTHWMGQPFNSDDRNTA

Variants of: B1
Assay: protein stability index of a GFP-peptide fusion (GPS, HEK-293T) (PSI 1-6); higher = more stable
Settings: c terminus: a fixed tail appended
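Also: lentivirally expressed fusions sorted by FACS into six bins by GFP to DsRed ratio, PSI derived from sequencing read proportions per bin multiplied by bin number.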

| Variant | protein stability index |
| --- | --- |
| P11Q | 2.65 |
| P11M | 2.15 |
| P11E | 1.91 |
| P11I | 2.82 |
| P11R | 2.16 |
| P11V | 3.59 |
| P11T | 2.72 |
| P11N | 1.82 |
| P11K | 1.93 |
| P11A | 2.12 |
| P11G | 2.1 |
| P11S | 3.09 |
| P11L | 4.39 |
| P11H | 2.39 |
| P11Y | 2.69 |
| P11F | 2.52 |
| P11D | 1.6 |
| E19T | 2.84 |
| E19Q | 1.52 |
| E19F | 2.15 |
| E19A | 2.59 |
| E19C | 2.09 |
| E19N | 2.28 |
| E19Y | 2.82 |
| E19S | 1.38 |

| Variant | protein stability index |
| --- | --- |
| E19D | 2.27 |
| E19I | 2.42 |
| E19H | 2.09 |
| E19P | 3.73 |
| E19L | 2.52 |
| E19K | 2.63 |
| E19R | 2.59 |
| E19V | 2.46 |
| E19G | 2.87 |
| I7R | 3.09 |
| I7T | 1.97 |
| I7V | 1.97 |
| I7Y | 2.6 |
| I7S | 2.54 |
| I7W | 2.27 |
| Q20H | 2.51 |
| Q20A | 2.63 |
| Q20V | 1.6 |
| Q20F | 2.08 |
| Q20D | 1.95 |
| Q20T | 3.59 |
| Q20K | 2.22 |
| Q20L | 2.38 |
| Q20N | 1.69 |
| Q20Y | 2.58 |

| Variant | protein stability index |
| --- | --- |
| Q20G | 2.7 |
| Q20R | 2.71 |
| Q20W | 2.02 |
| Q20S | 1.75 |
| Q20M | 3.03 |
| Q20E | 1.78 |
| Q20I | 2.18 |
| Q20P | 2.62 |
| Q20C | 3.11 |
| A12M | 1.47 |
| A12Y | 2.21 |
| A12P | 2.18 |
| A12E | 2.58 |
| A12D | 1.82 |
| A12H | 2.41 |
| A12R | 2.34 |
| A12G | 2.32 |
| A12C | 2.82 |
| A12N | 2.8 |
| A12F | 2.97 |
| A12S | 1.56 |
| A12K | 2.03 |
| A12V | 2.4 |
| A12Q | 2.03 |
| A12T | 2.81 |

| Variant | protein stability index |
| --- | --- |
| A12W | 1.79 |
| A12I | 2.35 |
| A12L | 2.57 |
| G23W | 3.02 |
| G23M | 2.28 |
| G23Y | 1.9 |
| G23Q | 1.87 |
| G23I | 1.97 |
| G23T | 1.46 |
| G23N | 2.37 |
| G23C | 2.96 |
| G23D | 1.93 |
| G23P | 2.27 |
| G23L | 3.53 |
| G23S | 3.38 |
| G23H | 2.88 |
| G23K | 2.94 |
| G23V | 1.97 |
| G23F | 2.36 |
| G23A | 2.64 |
| G23E | 2.22 |
| G23R | 1.34 |
| T15N | 2.46 |
| T15M | 2.87 |
| T15Q | 2.87 |

| Variant | protein stability index |
| --- | --- |
| T15F | 1.79 |
| T15C | 2.07 |
| T15L | 2.23 |
| T15H | 3.23 |
| T15A | 2.17 |
| T15Y | 2.83 |
| T15P | 1.58 |
| T15K | 1.68 |
| T15D | 2.95 |
| T15I | 2.39 |
| T15E | 2.53 |
| T15V | 1.54 |
| T15R | 1.44 |
| T15G | 2.53 |
| T15S | 2.41 |
| T15W | 3.77 |
| M17E | 1.86 |
| M17W | 2.46 |
| M17P | 2.04 |
| M17A | 2.37 |
| M17Q | 2.65 |
| M17H | 2.26 |
| M17C | 2.07 |
| M17S | 2.33 |
| M17T | 2.74 |

| Variant | protein stability index |
| --- | --- |
| M17R | 2.68 |
| M17K | 2.98 |
| M17Y | 1.8 |
| M17L | 2.84 |
| M17G | 1.53 |
| M17V | 2.98 |
| M17D | 2.02 |
| M17F | 1.52 |
| M17N | 2.19 |
| M17I | 2.18 |
| C18T | 2.67 |
| C18Y | 1.01 |
| C18I | 2.49 |
| C18D | 1.94 |
| C18P | 3.07 |
| C18M | 2.67 |
| C18Q | 1.57 |
| C18K | 1.61 |
| C18G | 3 |
| C18W | 2.17 |
| C18E | 1.96 |
| C18N | 1.95 |
| C18S | 2.81 |
| C18A | 3.42 |
| C18F | 2.19 |

| Variant | protein stability index |
| --- | --- |
| C18R | 2.85 |
| C18L | 2.71 |
| C18H | 2.34 |
| C18V | 2.26 |
| A13D | 2.51 |
| A13Q | 3.13 |
| A13R | 2.39 |
| A13M | 2.88 |
| A13E | 2.09 |
| A13H | 2.36 |
| A13S | 3.29 |
| A13K | 2.61 |
| A13C | 3.34 |
| A13W | 1.82 |
| A13P | 1.74 |
| A13L | 2.43 |
| A13I | 1.82 |
| A13V | 1.96 |
| A13Y | 2.42 |
| A13F | 2.33 |
| A13N | 2.54 |
| A13G | 2.97 |
| A13T | 1.15 |
| S14G | 1.9 |
| S14Q | 2.5 |

| Variant | protein stability index |
| --- | --- |
| S14T | 2.5 |
| S14E | 2.3 |
| S14C | 2.5 |
| S14R | 2.05 |
| S14P | 1.5 |
| S14F | 2.49 |
| S14Y | 3.88 |
| S14V | 2.44 |
| S14N | 3.48 |
| S14M | 2.33 |
| S14A | 3.14 |
| S14I | 1.61 |
| S14H | 3.11 |
| S14W | 3.03 |
| S14K | 2.24 |
| S14D | 1.68 |
| S14L | 1.64 |
| Y9P | 2.04 |
| Y9I | 2.34 |
| Y9F | 2.05 |
| Y9L | 1.73 |
| Y9T | 2.29 |
| Y9R | 2.19 |
| Y9S | 3.53 |
| Y9C | 2.38 |

| Variant | protein stability index |
| --- | --- |
| Y9N | 2.16 |
| Y9H | 2.1 |
| Y9M | 1.89 |
| Y9E | 2.05 |
| Y9V | 2.11 |
| Y9W | 1.45 |
| Y9K | 1.64 |
| Y9D | 2 |
| Y9A | 2.52 |
| Y9G | 2.46 |
| Y9Q | 2.01 |
| K16G | 1.81 |
| K16A | 2.13 |
| K16V | 1.96 |
| K16T | 2.55 |
| K16D | 2.38 |
| K16H | 1.76 |
| K16N | 2.01 |
| K16S | 2.34 |
| K16W | 2.05 |
| K16L | 1.84 |
| K16Q | 2.22 |
| K16P | 2.02 |
| K16E | 2.18 |
| K16C | 2.95 |

| Variant | protein stability index |
| --- | --- |
| K16Y | 3.02 |
| K16M | 1.85 |
| K16R | 2.07 |
| K16I | 2.61 |
| K16F | 1.83 |
| T8E | 1.78 |
| T8P | 1.97 |
| T8W | 2.55 |
| T8N | 2.68 |
| T8F | 2.17 |
| T8M | 1.96 |
| T8V | 2.49 |
| T8S | 2.21 |
| T8Y | 2.93 |
| T8I | 3.71 |
| T8L | 2.91 |
| T8D | 2.01 |
| T8A | 2.94 |
| T8C | 2.32 |
| T8H | 2.03 |
| T8K | 2.25 |
| T8R | 2.5 |
| T8G | 2.44 |
| T8Q | 1.94 |
| Q10C | 1.28 |

| Variant | protein stability index |
| --- | --- |
| Q10S | 2.54 |
| Q10H | 1.81 |
| Q10K | 2.78 |
| Q10W | 2.6 |
| Q10T | 2.12 |
| Q10V | 4.15 |
| Q10P | 2.83 |
| Q10G | 3.21 |
| Q10N | 3.54 |
| Q10Y | 3.24 |
| Q10R | 2.97 |
| Q10I | 2.81 |
| Q10M | 1.99 |
| Q10A | 2.79 |
| Q10L | 2.49 |
| Q10E | 2.5 |
| Q10D | 2.11 |
| K24W | 3.92 |
| K24E | 1.41 |
| K24S | 2.47 |
| K24Y | 3.96 |
| K24N | 2.59 |
| K24H | 3.08 |
| K24V | 2.86 |
| K24F | 3.31 |

| Variant | protein stability index |
| --- | --- |
| K24L | 3.19 |
| K24R | 1.98 |
| K24C | 2.46 |
| K24P | 2.65 |
| K24T | 2.21 |
| K24G | 1.65 |
| K24M | 3.29 |
| K24D | 2.73 |
| K24A | 2.89 |
| K24Q | 1.89 |
| K24I | 3.23 |
| A21Y | 2.16 |
| A21L | 2.7 |
| A21C | 2.68 |
| A21K | 1.51 |
| A21V | 2.5 |
| A21P | 2.28 |
| A21E | 2.46 |
| A21F | 1.94 |
| A21S | 2 |
| A21N | 2.22 |
| A21T | 2.79 |
| A21D | 2.17 |
| A21G | 2.42 |
| A21I | 3.11 |

| Variant | protein stability index |
| --- | --- |
| A21R | 2.69 |
| A21Q | 2.98 |
| A21M | 2.21 |
| A21H | 1.94 |
| A21W | 3.26 |
| L22I | 2.42 |
| L22S | 1.52 |
| L22A | 2.29 |
| L22W | 2.86 |
| L22H | 3.36 |
| L22K | 1.66 |
| L22V | 2.82 |
| L22F | 2.92 |
| L22E | 2.21 |
| L22D | 1.87 |
| L22Y | 2.79 |
| L22T | 2.43 |
| L22C | 2.54 |
| L22Q | 2.02 |
| L22N | 2.31 |
| L22R | 1.89 |
| L22M | 1.57 |
| L22G | 3.33 |
| L22P | 1.79 |

Variants of: B2
Assay: as above
Settings: c terminus: a fixed tail appended

| Variant | protein stability index |
| --- | --- |
| K1H | 2.69 |
| K1D | 4.26 |
| K1M | 2.73 |
| K1I | 2.54 |
| K1L | 3.03 |
| K1E | 4.15 |
| K1G | 3.21 |
| K1C | 2.54 |
| K1F | 3.16 |
| K1A | 3.57 |

Reference: the supplement of paper PMC10567573
